Measured values published in article PMC5045929, “Norovirus-Specific Memory T Cell Responses in Adult Human Donors” (Frontiers in Microbiology, 2016).

Target: the molecule itself
Assay: negative-stain electron microscopy; sucrose gradient-purified VLPs from baculovirus-infected Sf9 cells, negatively stained with 3% uranyl acetate (pH 4.5), 23,000x

B1: Norovirus GII.4 Sydney capsid protein VP1 (virus-like particles) (natural protein)
chain: MKMASSDANPSDGSAANLVPEVNNEVMALEPVVGAAIAAPVAGQQNVIDPWIRNNFVQAPGGEFTVSPRNAPGEILWSAPLGPDLNPYLSHLARMYNGYAGGFEVQVILAGNAFTAGKVIFAAVPPNFPTEGLSPSQVTMFPHIVVDVRQLEPVLIPLPDVRNNFYHYNQSNDPTIKLIAMLYTPLRANNAGDDVFTVSCRVLTRPSPDFDFIFLVPPTVESRTKPFSVPVLTVEEMTNSRFPIPLEKLFTGPSSAFVVQPQNGRCTTDGVLLGTTQLSPVNICTFRGDVTHITGSRNYTMNLASQNWNDYDPTEEIPAPLGTPDFVGKIQGVLTQTTRTDGSTRGHKATVYTGSADFAPKLGRVQFETDTDRDFEANQNTKFTPVGVIQDGGTTHRNEPQQWVLPSYSGRNTHNVHLAPAVAPTFPGEQLLFFRSTMPGCSGYPNMDLDCLLPQEWVQYFYQEAAPAQSDVALLRFVNPDTGRVLFECKLHKSGYVTVAHTGQHDLVIPPNGYFRFDSWVNQFYTLAPMGNGTGRRRAV
notes: The VP1 gene was cloned; also called GII.4 SYD VLP; GII.4-2012 (Sydney); source: Sf9 insect cells (baculovirus, pFastBac1), purified by two discontinuous sucrose gradient ultracentrifugations
- binding result: binds
